Holding throughout (assay): SDS-PAGE without boiling
Series [1] concerns the target FITC-labeled cholera toxin B (sortase-labeled GGG-CTB) (UniProt P01556).
Series [2] concerns the target cholera toxin B with an N-terminal triglycine extension (UniProt P01556).
Series [3] deals with the molecule itself.

Broadly, the stoichiometry N is the number of molecules, sites or subunits per partner or assembly. Turning to “FITC-labeled cholera toxin B (sortase-labeled GGG-CTB) (from UniProt P01556 22-124) (natural protein)”, in series [1], the stoichiometry N is 5. The molecule “cholera toxin B with an N-terminal triglycine extension (from UniProt P01556 22-124) (natural protein)” had a stoichiometry N in series [2] of 5.

B1: cholera toxin B-subunit (natural protein)
chain: TPQNITDLCAEYHNTQIYTLNDKIFSYTESLAGKREMAIITFKNGAIFQVEVPGSQHIDSQKKAIERMKDTLRIAYLTEAKVEKLCVWNNKTPHAIAAISMAN
notes: also called B5; B5 pentamer
For the molecule B1, the “stoichiometry N” value in series [3] came to 5.

Values taken from publication PMC11054894, “Sortase-Modified Cholera Toxoids Show Specific Golgi Localization” (Toxins, 2024).
